The values below come from patent US11390894B2, “Biological processes for the production of aryl sulfates” (CysBio ApS, priority 2014, dated 2022).

In assay [1] the test system is tyrosine. As to the kind of experiment: In vivo supply of p-coumaric acid by tyrosine ammonia-lyases co-expressed with SULT1A1 rat in E. coli. The note with it: M9 0.2% glucose, 2 mM tyrosine, 1 mM IPTG, overnight 37° C., supernatant. It counts as cell-based, Escherichia coli. On the procedure:
(§1) The concentration of p-courmaric acid (pHCA) and zosteric acid in the supernatant was quantified by high performance (HPLC) and compared to chemical standards. HPLC was done on a Thermo setup using a HS-F5 column and mobile phases: 5 mM ammonium formate pH 4.0 (A) and acetonitrile (B) at 1.5 mL min-1, using a gradient elution starting at 5% B. From 0.5 min after injection to 7 min, the fraction of B increased linearly from 5% to 60%, and between 9.5 min and 9.6 the fraction of B decreased back to 5%, and remaining there until 12 min. pHCA and zosteric acid were quantified by measuring absorbance at 277 nm.
The genes encoding the tyrosine ammonia-lyases RcTAL (from Rhodobacter capsulatus; SEQ ID NO: 48), RsTAL (from Rhodobacter sphaeroides; SEQ ID NO: 17) and FjTAL (from Flavobacterium johnsoniae; SEQ ID NO: 14) were cloned into expression vectors as follows. Genes (SEQ ID NO: 49, 50, and 51, respectively) were optimized for E. coli and synthesized by GeneArt, amplified by PCR using the oligonucleotides shown in the table below, and cloned into pCDFDuet-1 (Novagen): The plasmid was digested with NdeI and BgIII and gel purified. The genes were inserted by isothermal assembly using Gibson Assembly Master Mix (New England Biolabs), and transformed into chemically competent DH5a (laboratory strain) or NEB5α (New England Biolabs), selecting for resistance to 50 μg mL^−1 spectinomycin in LB medium. Resulting plasmids pCBJ215 (RsTAL), pCBJ228 (FjTAL) and pCBJ297 (RcTAL) (FIGS. 6 to 8, respectively) were co-transformed by electroporation into the E. coli expression strain BL21(DE3) (Invitrogen/Life Technologies) together with a pETDuet-1-based plasmid expressing SULT1A1 from rat (Example 1). Transformation cultures were plated on LB containing 50 μg mL^−1 spectinomycin and 100 μg mL^−1 ampicillin. A control strain carrying pCDFDuet-1 was also made.
Strains harboring recombinant plasmids were pre-cultured in 2×YT liquid medium with 100 μg mL^−1 ampicillin and 50 μg mL^−1 spectinomycin and incubated at 37° C. and 250 rpm overnight. The following day, each pre-culture was transferred into 5 ml of M9 minimal medium with 0.2% glucose, 2 mM tyrosine and 1 mM IPTG for induction of expression. Cultures were placed in an incubator at 37° C. with shaking at 250 rpm overnight. The supernatants were then collected by centrifugation twice and applied to HPLC analysis as described in example 1, and the titers of p-coumaric acid (pHCA) and zosteric acid (ZA) were quantified using chemical standards and are presented in the table below.

In assay [2] the test system is tyrosine. Nature of the assay: pHCA and zosteric acid in culture media of E. coli expressing an aryl sulfotransferase in combination with a tyrosine ammonia lyase. It counts as cell-based, Escherichia coli. The following applies: M9 glucose, 0.1 mM IPTG, no substrate added. On the procedure: as §1
The enzyme RmXAL from Rhodotorula mucilaginosa/Rhodotorula rubra (SEQ ID NO: 20) has tyrosine ammonia lyase activity, thus catalyzing the non-oxidative deamination of the amino acid tyrosine, releasing p-coumaric acid (pHCA) and ammonia. The gene encoding RmXAL was codon optimized using standard algorithms for expression in E. coli available by GeneArt (Life Technologies) and amplified by PCR using the primers shown in table 5 and inserted into the pCDFDuet-1 vector (Novagen/Life Technologies), which had been digested by the restriction enzymes NdeI and BgIII, using Gibson reaction (New England Biolabs). FIG. 4 provides an image of the plasmid expressing RmXAL.
The resulting plasmid was co-transformed into E. coli BL21(DE3)pLysS cells (Life Technologies) alone or together with the plasmid expressing SULT1A1 from Homo sapiens (example 1). The resulting strains was grown in M9 media with glucose as a carbon source, with 0.1 mM IPTG for induction of gene expression. Samples were taken as described previously (example 1) for analysis of product formation. […] RmXAL allowed the production of pHCA without addition of any substrate, thus providing a heterologous pathway from the cells normal metabolism to a heterologous product. The additional expression of an aryl sulfotransferase, exemplified by SULT1A1 from Homo sapiens, allowed the in vivo conversion of pHCA to zosteric acid. Thus, an aryl sulfotransferase can act upon a compound produced in vivo and the cells can release the resulting sulfated product to the medium.

Where only a bound is given, the exact number is not on record here.

B1: RcTAL: tyrosine ammonia-lyase from Rhodobacter capsulatus (protein, listed as Rhodobacter capsulatus)
chain: MLDATIGRKRMTLQSQTAKDCLALDGALTLVQCEAIATHRSRISVTPALRERCARAHARLEHAIAEQRHIYGITTGFGPLANRLIGADQGAELQQNLIYHLATGVGPKLSWAEARALMLARLNSILQGASGASPETIDRIVAVLNAGFAPEVPAQGTVGASGDLTPLAHMVLALQGRGRMIDPSGRVQEAGAVMDRLCGGPLTLAARDGLALVNGTSAMTAIAALTGVEAARAIDAALRHSAVLMEVLSGHAEAWHPAFAELRPHPGQLRATERLAQALDGAGRVCRTLTAARRLTAADLRPEDHPAQDAYSLRVVPQLVGAVWDTLDWHDRVVTCELNSVTDNPIFPEGCAVPALHGGNFMGVHVALASDALNAALVTLAGLVERQIARLTDEKLNKGLPAFLHGGQAGLQSGFMGAQVTATALLAEMRANATPVSVQSLSTNGANQDVVSMGTIAARRARAQLLPLSQIQAILALALAQAMDLLDDPEGQAGWSLTARDLRDRIRAVSPGLRADRPLAGDIEAVAQGLRHPSAADPPA
For B1, in the assay with tyrosine [1], the “μM ZA” value is below 1 µM and the “μM pHCA” value came to 20 μM.

B2: RsTAL: tyrosine ammonia-lyase from Rhodobacter sphaeroides (protein)
chain: MLAMSPPKPAVELDRHIDLDEAHSVASGGARIVLAPPARDRCRASEARLGAVIREARHVYGLTTGFGPLANRLVSGENVRTLQANLVHHLASGVGPVLDWTTARAMVLARLVAIAQGASGASEGTIARLIDLLNSELAPAVPMRGTVGASGDLTPLAHMVLCLQGRGDFLDRDGTRLDGAEGLRRGRLQPLDLSHRDALALVNGTSAMTGIALVNAHACRHLGNWAVALTALLAECLGGRTEAWAAALSDLRPHPGQKDAAARLRARVDGSARVVRHVIAERRLGASDIGTEPEAGQDAYSLRCAPQVLGAGFDTLAWHDRVLTIELNAVTDNPVFPPDGSVPALHGGNFMGQHVALTSDALATAVTVLAGLAERQIARLTDERLNRGLPPFLHRGPAGLNSGFMGAQVTATALLAEMRATGPASIHSISTNAANQDVVSLGTIAARLCREKIDRWAEILAILALCLAQAAELRCGSGLDGVSPAGKKLVQALREQFPPLETDRPLGQEIAALATHLLQQSPV
modifications: Rhodobacter sphaeroides
Regarding B2, in the assay with tyrosine [1], the “μM ZA” value was below 1 µM and the “μM pHCA” value worked out at 78 μM.

B3: RmXAL: enzyme from Rhodotorula mucilaginosa/Rhodotorula rubra with tyrosine ammonia lyase activity (protein, listed as Rhodotorula mucilaginosa)
chain: MAPSVDSIATSVANSLSNGLHAAAAANGGDVHKKTAGAGSLLPTTETTQLDIVERILADAGATDQIKLDGYTLTLGDVVGAARRGRSVKVADSPHIREKIDASVEFLRTQLDNSVYGVTTGFGGSADTRTEDAISLQKALLEHQLCGVLPTSMDGFALGRGLENSLPLEVVRGAMTIRVNSLTRGHSAVRIVVLEALTNFLNHGITPIVPLRGTISASGDLSPLSYIAASITGHPDSKVHVDGKIMSAQEAIALKGLQPVVLGPKEGLGLVNGTAVSASMATLALTDAHVLSLLAQALTALTVEAMVGHAGSFHPFLHDVTRPHPTQIEVARNIRTLLEGSKYAVHHETEVKVKDDEGILRQDRYPLRCSPQWLGPLVSDMIHAHAVLSLEAGQSTTDNPLIDLENKMTHHGGAFMASSVGNTMEKTRLAVALMGKVSFTQLTEMLNAGMNRALPSCLAAEDPSLSYHCKGLDIAAAAYTSELGHLANPVSTHVQPAEMGNQAINSLALISARRTAEANDVLSLLLATHLYCVLQAVDLRAMEFEHTKAFEPMVTELLKQHFGALATAEVEDKVRKSIYKRLQQNNSYDLEQRWHDTFSVATGAVVEALAGQEVSLASLNAWKVACAEKAIALTRSVRDSFWAAPSSSSPALKYLSPRTRVLYSFVREEVGVKARRGDVYLGKQEVTIGTNVSRIYEAIKSGCIAPVLVKMMA
As to B3, in the assay with tyrosine [2], the Zosteric acid formed entry is recorded as “Not detectable” and the pHCA is reported as 0.04 mM.

B4: SULT1A1 Homo sapiens, RmXAL: SULT1A1 from Homo sapiens co-expressed with tyrosine ammonia lyase RmXAL in E. coli (protein, UniProt P50225 1-295, looked up)
Sulfotransferase 1A1: MELIQDTSRPPLEYVKGVPLIKYFAEALGPLQSFQARPDDLLISTYPKSGTTWVSQILDMIYQGGDLEKCHRAPIFMRVPFLEFKAPGIPSGMETLKDTPAPRLLKTHLPLALLPQTLLDQKVKVVYVARNAKDVAVSYYHFYHMAKVHPEPGTWDSFLEKFMVGEVSYGSWYQHVQEWWELSRTHPVLYLFYEDMKENPKREIQKILEFVGRSLPEETVDFVVQHTSFKEMKKNPMTNYTTVPQEFMDHSISPFMRKGMAGDWKTTFTVAQNERFDADYAEKMAGCSLSFRSEL
modifications: co-expressed with RmXAL
notes: SULT1A1 from Homo sapiens co-expressed with tyrosine ammonia lyase RmXAL in E. coli
As to B4, in the assay on tyrosine [2], the Zosteric acid formed was 0.01 mM and the pHCA is reported as 0.02 mM.

B5: FjTAL: tyrosine ammonia-lyase from Flavobacterium johnsoniae (protein, listed as Flavobacterium johnsoniae)
chain: MNTINEYLSLEEFEAIIFGNQKVTISDVVVNRVNESFNFLKEFSGNKVIYGVNTGFGPMAQYRIKESDQIQLQYNLIRSHSSGTGKPLSPVCAKAAILARLNTLSLGNSGVHPSVINLMSELINKDITPLIFEHGGVGASGDLVQLSHLALVLIGEGEVFYKGERRPTPEVFEIEGLKPIQVEIREGLALINGTSVMTGIGVVNVYHAKKLLDWSLKSSCAINELVQAYDDHFSAELNQTKRHKGQQEIALKMRQNLSDSTLIRKREDHLYSGENTEEIFKEKVQEYYSLRCVPQILGPVLETINNVASILEDEFNSANDNPIIDVKNQHVYHGGNFHGDYISLEMDKLKIVITKLTMLAERQLNYLLNSKINELLPPFVNLGTLGFNFGMQGVQFTATSTTAESQMLSNPMYVHSIPNNNDNQDIVSMGTNSAVITSKVIENAFEVLAIEMITIVQAIDYLGQKDKISSVSKKWYDEIRNIIPTFKEDQVMYPFVQKVKDHLINN
B5: in the assay with tyrosine [1], the “μM ZA” value is 16 µM and the “μM pHCA” value turned out to be 398 μM.
